Measurements published in US20130273029A1 (Novartis, published 2013).

Experiments:
[1] = molecular target: T1, Rat HER3: CD33-[Rat HER3, residues 20-643]-TAG (rat, UniProt Q62799 20-643); assay: SET, IgG vs soluble HER3-Tag
T1 construct: also called ra HER3-Tag; not shown: C-terminal TAG (e.g., FLAG TAG)
Protocol: (§1) Affinity determination in solution was essentially performed as previously described (Friguet et al., (1985) J Immunol Methods 77:305-19). In order to improve the sensitivity and accuracy of the SET method, it was transferred from classical ELISA to ECL based technology (Haenel et al., (2005) Anal Biochem 339:182-84).
(§2) The data was evaluated with XLfit software (ID Business Solutions) applying customized fitting models.
(§3) Antibody affinity was determined by solution equilibrium titration (SET) as described above. The results are summarized in Table 3 and example titration curves for MOR12616 and MOR12925 are contained in FIG. 1.

[2] = molecular target: T2, Cyno HER3: CD33-[Cyno HER3, residues 20-643]-TAG (cynomolgus, UniProt G7PIG5 20-643); assay: SET, IgG vs soluble HER3-Tag
T2 construct: also called cy HER3-Tag; not shown: C-terminal TAG (e.g., FLAG TAG)
T2 sequence (G7PIG5 entry or part of it): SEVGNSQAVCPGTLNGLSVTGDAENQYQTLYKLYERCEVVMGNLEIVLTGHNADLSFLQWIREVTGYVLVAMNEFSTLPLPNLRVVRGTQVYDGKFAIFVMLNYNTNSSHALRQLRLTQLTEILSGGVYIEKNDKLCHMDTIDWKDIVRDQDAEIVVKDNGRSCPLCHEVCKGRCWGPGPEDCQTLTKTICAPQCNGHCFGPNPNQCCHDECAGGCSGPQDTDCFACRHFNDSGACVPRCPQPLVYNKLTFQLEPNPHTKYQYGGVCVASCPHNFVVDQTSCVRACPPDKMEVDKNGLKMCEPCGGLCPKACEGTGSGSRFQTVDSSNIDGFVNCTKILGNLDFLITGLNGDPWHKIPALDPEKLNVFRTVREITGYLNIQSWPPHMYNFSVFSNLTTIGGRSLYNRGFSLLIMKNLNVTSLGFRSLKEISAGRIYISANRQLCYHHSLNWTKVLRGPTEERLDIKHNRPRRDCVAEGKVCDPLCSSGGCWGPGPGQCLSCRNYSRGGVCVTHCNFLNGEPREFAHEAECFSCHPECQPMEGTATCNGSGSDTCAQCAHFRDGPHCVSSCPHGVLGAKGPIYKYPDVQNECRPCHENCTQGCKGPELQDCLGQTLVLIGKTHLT
Protocol: as §1, §2, §3

[3] = molecular target: T3, Mu HER3: CD33-[Murine HER3, residues 20-643]-TAG (murine, UniProt Q61526 20-643); assay: SET, IgG vs soluble HER3-Tag
T3 construct: also called mu HER3-Tag; not shown: C-terminal TAG (e.g., FLAG TAG)
T3 sequence (Q61526 20-643): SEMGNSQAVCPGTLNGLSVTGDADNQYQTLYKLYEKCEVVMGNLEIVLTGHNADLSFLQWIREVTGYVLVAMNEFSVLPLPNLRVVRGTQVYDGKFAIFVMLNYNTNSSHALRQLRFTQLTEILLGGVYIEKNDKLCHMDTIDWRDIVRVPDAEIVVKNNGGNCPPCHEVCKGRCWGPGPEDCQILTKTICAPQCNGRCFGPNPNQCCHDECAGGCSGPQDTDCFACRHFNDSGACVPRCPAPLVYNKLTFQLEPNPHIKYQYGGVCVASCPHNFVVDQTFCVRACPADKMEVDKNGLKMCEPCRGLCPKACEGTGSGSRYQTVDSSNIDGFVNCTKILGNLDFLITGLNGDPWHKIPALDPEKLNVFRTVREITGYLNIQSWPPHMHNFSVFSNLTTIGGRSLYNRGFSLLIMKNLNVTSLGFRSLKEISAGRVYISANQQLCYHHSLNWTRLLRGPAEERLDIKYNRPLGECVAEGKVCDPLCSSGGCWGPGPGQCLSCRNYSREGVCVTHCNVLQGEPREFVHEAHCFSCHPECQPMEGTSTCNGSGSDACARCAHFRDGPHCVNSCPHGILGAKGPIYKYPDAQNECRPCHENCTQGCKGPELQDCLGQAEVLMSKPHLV
Protocol: as §1, §2, §3

[4] = molecular target: T4, Hu HER3: CD33-[Human HER3, residues 20-640]-TAG (human, UniProt P21860 20-640); assay: SET, IgG vs soluble HER3-Tag
T4 construct: also called hu HER3-Tag; HER3-Tag; not shown: C-terminal TAG (e.g., FLAG TAG)
T4 sequence (P21860 20-640): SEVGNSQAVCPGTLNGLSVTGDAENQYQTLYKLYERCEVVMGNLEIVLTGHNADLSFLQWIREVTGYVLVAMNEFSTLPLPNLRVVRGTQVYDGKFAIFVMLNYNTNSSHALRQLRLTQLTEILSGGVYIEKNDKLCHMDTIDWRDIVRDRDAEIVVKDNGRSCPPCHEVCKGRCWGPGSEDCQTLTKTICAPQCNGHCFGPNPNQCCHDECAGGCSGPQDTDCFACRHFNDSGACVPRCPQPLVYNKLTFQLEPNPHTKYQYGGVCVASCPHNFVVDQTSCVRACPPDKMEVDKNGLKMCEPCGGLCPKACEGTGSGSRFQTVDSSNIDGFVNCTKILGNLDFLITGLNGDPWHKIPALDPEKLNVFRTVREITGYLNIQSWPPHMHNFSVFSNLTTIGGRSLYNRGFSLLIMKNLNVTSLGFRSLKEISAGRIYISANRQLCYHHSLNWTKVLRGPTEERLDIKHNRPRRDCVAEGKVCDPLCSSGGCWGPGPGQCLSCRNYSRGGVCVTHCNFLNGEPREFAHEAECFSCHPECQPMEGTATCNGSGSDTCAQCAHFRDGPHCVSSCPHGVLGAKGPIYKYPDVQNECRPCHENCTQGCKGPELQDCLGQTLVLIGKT
Protocol: as §1, §2, §3

[5] = molecular target: T5, Human HER3, endogenous, on human cancer cell lines (SK-Br-3, MCF7, BT-474) (human, UniProt P21860 20-1342); assay: cell-based or functional assay
T5 sequence (P21860 20-1342): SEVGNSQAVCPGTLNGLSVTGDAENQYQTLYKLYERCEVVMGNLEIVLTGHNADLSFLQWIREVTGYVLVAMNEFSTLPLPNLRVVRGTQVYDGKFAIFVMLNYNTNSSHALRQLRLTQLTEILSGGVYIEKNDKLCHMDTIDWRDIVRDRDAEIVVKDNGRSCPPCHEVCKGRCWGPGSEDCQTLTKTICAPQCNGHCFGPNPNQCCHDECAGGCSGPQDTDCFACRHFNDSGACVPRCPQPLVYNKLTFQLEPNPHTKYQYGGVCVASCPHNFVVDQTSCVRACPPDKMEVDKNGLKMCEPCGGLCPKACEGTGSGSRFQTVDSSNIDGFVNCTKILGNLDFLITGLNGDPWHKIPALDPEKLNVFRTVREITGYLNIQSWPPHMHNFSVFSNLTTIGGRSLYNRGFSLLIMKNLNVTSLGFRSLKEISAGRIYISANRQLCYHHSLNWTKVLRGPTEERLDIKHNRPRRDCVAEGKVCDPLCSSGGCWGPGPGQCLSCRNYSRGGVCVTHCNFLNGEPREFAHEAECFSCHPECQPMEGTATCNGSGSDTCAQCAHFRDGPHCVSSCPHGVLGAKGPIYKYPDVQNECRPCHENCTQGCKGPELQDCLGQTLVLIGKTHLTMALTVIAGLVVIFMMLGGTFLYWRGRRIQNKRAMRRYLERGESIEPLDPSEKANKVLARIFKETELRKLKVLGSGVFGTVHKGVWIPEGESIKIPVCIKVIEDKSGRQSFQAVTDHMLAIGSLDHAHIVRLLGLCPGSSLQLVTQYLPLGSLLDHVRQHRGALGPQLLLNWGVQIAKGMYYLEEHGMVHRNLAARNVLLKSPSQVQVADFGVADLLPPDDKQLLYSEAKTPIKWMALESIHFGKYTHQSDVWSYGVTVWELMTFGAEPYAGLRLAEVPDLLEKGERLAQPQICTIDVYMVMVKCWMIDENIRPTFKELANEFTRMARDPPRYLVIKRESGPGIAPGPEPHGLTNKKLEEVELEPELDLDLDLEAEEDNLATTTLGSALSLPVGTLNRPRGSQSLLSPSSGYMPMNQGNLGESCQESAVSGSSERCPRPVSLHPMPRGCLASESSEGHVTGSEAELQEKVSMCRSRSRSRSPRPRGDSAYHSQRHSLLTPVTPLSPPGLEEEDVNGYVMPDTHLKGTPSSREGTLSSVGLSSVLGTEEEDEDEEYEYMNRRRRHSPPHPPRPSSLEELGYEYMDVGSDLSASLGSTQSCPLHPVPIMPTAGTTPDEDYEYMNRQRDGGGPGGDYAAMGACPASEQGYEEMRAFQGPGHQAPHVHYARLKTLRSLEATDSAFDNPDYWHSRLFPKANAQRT

[6] = molecular target: T5, Human HER3, endogenous, on human cancer …; assay: cell-based or functional assay; remark: listed apart in the source
[7] = molecular target: T5, Human HER3, endogenous, on human cancer …; assay: cell-based or functional assay; remark: listed apart in the source

T1 sequence (Q62799 20-643): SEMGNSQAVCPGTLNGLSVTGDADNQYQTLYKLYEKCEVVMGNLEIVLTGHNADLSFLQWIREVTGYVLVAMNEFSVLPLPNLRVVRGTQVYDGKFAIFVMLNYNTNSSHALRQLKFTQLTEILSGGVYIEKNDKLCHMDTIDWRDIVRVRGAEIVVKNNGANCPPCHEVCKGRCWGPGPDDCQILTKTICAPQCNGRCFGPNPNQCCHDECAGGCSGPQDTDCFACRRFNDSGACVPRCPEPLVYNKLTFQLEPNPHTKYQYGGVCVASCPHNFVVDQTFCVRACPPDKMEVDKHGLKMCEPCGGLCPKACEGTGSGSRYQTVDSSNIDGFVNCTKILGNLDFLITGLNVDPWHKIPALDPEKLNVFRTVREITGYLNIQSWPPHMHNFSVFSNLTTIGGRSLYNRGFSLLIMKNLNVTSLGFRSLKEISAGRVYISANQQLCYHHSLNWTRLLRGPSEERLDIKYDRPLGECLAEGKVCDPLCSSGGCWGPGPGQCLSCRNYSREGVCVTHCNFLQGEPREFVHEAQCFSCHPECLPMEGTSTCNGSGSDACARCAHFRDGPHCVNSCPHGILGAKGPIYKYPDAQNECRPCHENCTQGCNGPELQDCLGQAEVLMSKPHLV

Kd [1] [nM]	Kd [2] [nM]	Kd [3] [nM]	Kd [4] [nM]	BT474 pHER3 % inhibition [5] [%]	MCF7 pHER3 % inhibition [5] [%]	MCF7 pHER3 IC50 [5] [pM]	SK-Br-3 pHER3 % inhibition [5] [%]	SK-Br-3 pHER3 IC50 [5] [pM]	MCF7 proliferation % inhibition [6] [%]	MCF7 proliferation IC50 [6] [pM]	SK-Br-3 proliferation % inhibition [6] [%]	SK-Br-3 proliferation IC50 [6] [pM]	BT-474 pAkt (S473) % inhibition [7] [%]	BT-474 pAkt (S473) IC50 [7] [pM]	SK-Br-3 pAkt (S473) % inhibition [7] [%]	SK-Br-3 pAkt (S473) IC50 [7] [pM]	BT474 pHER3 IC50 [5] [pM]	BT-474 proliferation % inhibition [6] [%]	BT-474 proliferation IC50 [6] [pM]	Binder
0.48	0.32	0.25	0.078	84	70	712	76	483	24	1470	45	572	–	–	–	–	–	–	–	MOR12509 (antibody, human IgG1, kappa, V domains shown, tested as IgG) VH: QVQLVQSGAEVKKPGESLKISCKGSGYSFTNSWVAWVRQMPGKGLEWMGIIYPGNSDTIYSPSFQGQVTISADKSISTAYLQWSSLKASDTAMYYCARVHIIQPPSAWSYNAMDVWGQGTLVTVSS VL: DIQMTQSPSSLSASVGDRVTITCRASQSITHYLNWYQQKPGKAPKLLIFGASNLQSGVPSRFSGSGSGTDFTLTISSLQPEDFATYYCQQAFVDPSTTFGQGTKVEIKR
–	–	–	0.03	71	78	267	83	107	69	56	41	310	84	472	95	120	643	42	376	MOR13867 (antibody, human IgG1, kappa, V domains shown, tested as IgG) VH: QVQLVQSGAEVKKPGESLKISCKGSGYSFSNYWIAWVRQMPGKGLEWMGIIYPGQSDTIYSPSFQGQVTISADKSISTAYLQWSSLKASDTAMYYCARVHIIQPPSAWSYNAMDVWGQGTLVTVSS VL: DIQMTQSPSSLSASVGDRVTITCRASQSISTYLNWYQQKPGKAPKLLIFGASNLQSGVPSRFSGSGSGTDFTLTISSLQPEDFATYYCQQSITELFTFGQGTKVEIKR
–	–	–	0.23	55	64	427	77	263	52	–	24	5410	79	3040	91	212	1330	28	10600	MOR13869 (antibody, human IgG1, kappa, V domains shown, tested as IgG) VH: QVQLVQSGAEVKKPGESLKISCKGSGYSFSNYWIAWVRQMPGKGLEWMGIIYPGGSDTIYSPSFQGQVTISADKSISTAYLQWSSLKASDTAMYYCARVHIIQPPSAWSYNAMDVWGQGTLVTVSS VL: DIQMTQSPSSLSASVGDRVTITCRASQSISTYLNWYQQKPGKAPKLLIFGASNLQSGVPSRFSGSGSGTDFTLTISSLQPEDFATYYCQQSITELFTFGQGTKVEIKR
–	–	–	0.173	66	71	84	81	110	48	61	39	1140	77	424	91	76	535	43	539	MOR13870 (antibody, human IgG1, kappa, V domains shown, tested as IgG) VH: QVQLVQSGAEVKKPGESLKISCKGSGYSFSNYWIAWVRQMPGKGLEWMGIIYPGTSDTIYSPSFQGQVTISADKSISTAYLQWSSLKASDTAMYYCARVHIIQPPSAWSYNAMDVWGQGTLVTVSS VL: DIQMTQSPSSLSASVGDRVTITCRASQSISTYLNWYQQKPGKAPKLLIFGASNLQSGVPSRFSGSGSGTDFTLTISSLQPEDFATYYCQQSITELFTFGQGTKVEIKR
–	–	–	0.024	61	–	–	78	130	–	–	48	285	82	167	89	92	496	48	924	MOR13767 (antibody, human IgG1, kappa, V domains shown, tested as IgG) VH: QVQLVQSGAEVKKPGESLKISCKGSGYSFTTSWVAWVRQMPGKGLEWMGIIYPGQSDTIYSPSFQGQVTISADKSISTAYLQWSSLKASDTAMYYCARVHIIQPPSAWSYNAMDVWGQGTLVTVSS VL: DIQMTQSPSSLSASVGDRVTITCRASQSISTYLNWYQQKPGKAPKLLIFGASNLQSGVPSRFSGSGSGTDFTLTISSLQPEDFATYYCQQSITELFTFGQGTKVEIKR
–	–	–	0.133	68	75	189	83	205	58	–	29	251	81	537	92	78	894	39	1720	MOR13868 (antibody, human IgG1, kappa, V domains shown, tested as IgG) VH: QVQLVQSGAEVKKPGESLKISCKGSGYSFSNYWIAWVRQMPGKGLEWMGIIYPGLSDTIYSPSFQGQVTISADKSISTAYLQWSSLKASDTAMYYCARVHIIQPPSAWSYNAMDVWGQGTLVTVSS VL: DIQMTQSPSSLSASVGDRVTITCRASQSISTYLNWYQQKPGKAPKLLIFGASNLQSGVPSRFSGSGSGTDFTLTISSLQPEDFATYYCQQSITELFTFGQGTKVEIKR
–	–	–	0.193	68	74	43	83	105	58	–	32	1290	83	1630	93	97	608	43	1000	MOR13871 (antibody, human IgG1, kappa, V domains shown, tested as IgG) VH: QVQLVQSGAEVKKPGESLKISCKGSGYSFSNYWIAWVRQMPGKGLEWMGIIYPGSSDTIYSPSFQGQVTISADKSISTAYLQWSSLKASDTAMYYCARVHIIQPPSAWSYNAMDVWGQGTLVTVSS VL: DIQMTQSPSSLSASVGDRVTITCRASQSISTYLNWYQQKPGKAPKLLIFGASNLQSGVPSRFSGSGSGTDFTLTISSLQPEDFATYYCQQSITELFTFGQGTKVEIKR
